Source: patent publication EP4810515A1 (Shanghai Haiju Biological Technology Co., Ltd., dated 2026)
Changes are numbered by the printed parent chain.

T1: human GDF15 recombinant protein (ACRO, GD5-H5149) (human, UniProt Q99988 197-308)
T1 sequence (looked up): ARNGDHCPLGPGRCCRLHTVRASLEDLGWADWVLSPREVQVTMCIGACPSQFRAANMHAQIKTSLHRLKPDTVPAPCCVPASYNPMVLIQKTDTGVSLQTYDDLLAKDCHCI

T2: GDF15 protein (R&D, 8146-GD) (UniProt Q99988 197-308)
T2 construct: analyte of the SPR assay
T2 sequence (looked up): T1 sequence (looked up)

T3: cynomolgus monkey GDF15 recombinant protein (Kactus, GDF-CM215) (cynomolgus monkey, UniProt G7PWZ3 197-308, limits assumed)
T3 construct: also called cynoGDF-15.hFc; cynoGDF15; not shown: human Fc (hFc)
T3 sequence (looked up): T1 sequence (looked up) with H6R, R21H, A54E, T63M, S64N, I112V

T4: mouse GDF15 recombinant protein (Kactus, GDF-MM215) (mouse, UniProt Q9Z0J7 189-303, limits assumed)
T4 construct: also called mGDF-15.hFc; murine GDF15; not shown: human Fc (hFc)
T4 sequence (looked up): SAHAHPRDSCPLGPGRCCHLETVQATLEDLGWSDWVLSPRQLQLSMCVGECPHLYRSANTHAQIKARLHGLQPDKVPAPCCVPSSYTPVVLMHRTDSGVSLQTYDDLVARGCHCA

B1: G2-CH2-LP1-hIgG1 (LALAGA, -K) (antibody, V domains shown)
VH: QVTLKESGPGILQPSQTLSLTCSFSGFSLTISGMGVSWIRQPSGKGLEWLAHIYWDDDKRYNPSLKSRLTISKDTSSNQVFLEITSVDTADTATYYCVRAGWDFFDYWGQGTTLTVSS
VL: DIVMTQSQKFMSTSVGDRVSVTCKASQNVGTNVAWYQQKPGQSPKGLIYSASYRYSGVPDRFTGSGSGTDFTLTISNVQSEDLAEYFCQQYNAYPWTFGGGTKLEIKR
B2: G2-H5-H3.2L4-hIgG1(LALAGA,-K) (antibody, V domains shown)
VH: EVQLVQSGAEVKKPGASVKVSCKASGYTFTDYNLNWVRQATGQGLEWIGDLNPYNQGIIYNQKFKGRATLTVDKSISTAYMELSSLRSEDTAVYYCAREGRGGAWFDSWGQGTLVTVSS
VL: DIQMTQSPSSLSASVGDRVTITCKASEDIYHRLAWYQQKPGKAPKLLISGATSLETGIPSRFSGSGSGTDYTFTISSLQPEDIATYYCQQYWSPPFTFGGGTKVEIKR
notes: humanized from G2-CH5-HP2
B3: G2-H5-H4.2L2-hIgG1(LALAGA,-K) (antibody, V domains shown)
VH: B2 VH with F29L, D73N
VL: B2 VL with S49Y, I58V
notes: humanized from G2-CH5-HP2
B4: G2-H5-H4.2L4-hIgG1(LALAGA,-K) (antibody, V domains shown)
VH: B2 VH with F29L, D73N
VL: B2 VL
notes: humanized from G2-CH5-HP2
B5: G2-H5-H4.2L3-hIgG1(LALAGA,-K) (antibody, V domains shown)
VH: B2 VH with F29L, D73N
VL: B2 VL with I58V
notes: humanized from G2-CH5-HP2
B6: G2-H5-H4.2L1-hIgG1(LALAGA,-K) (antibody, V domains shown)
VH: B2 VH with F29L, D73N
VL: B2 VL with S49Y, I58V, Y71F
notes: humanized from G2-CH5-HP2
B7: G2-CH13 (antibody, human IgG1, kappa, V domains shown)
VH: EVLLQQSGPELVKPGASVKITCKASGYTFTDYNMNWVKQSHGKSLEWIGDINPYNGGIIYNQKFRGKATLTIDKSSSTAYMELRSLTSEDTAVYYCAREVRRGSFFDYWGQGTTLTVSS
VL: DIQMTQSPASLSVSVGETVTITCRASENIYSNLAWYQQKQGKSPQLLVYAATDLADGVPSRFSGSGSGTQYSLKINSLQSEDFGNYHCQLFWGTPTFGGGTKLEIKR
notes: chimeric: murine variable regions on human IgG1 constant region mutant (LALAGA, -K)
B8: G2-CH14 (antibody, human IgG1, kappa, V domains shown)
VH: QVTLKESGPGILQPSQTLSLTCSFSGFSLSTSGMGVSWIRQPSGKGLEWLALIYWDDDKRYNPSLKSRLTISKDASSNQVFLKITSVDTADTATYYCIQSPWDWFAYWGQGTLVTVSA
VL: EIVLTQSPALMAASPGEKVTITCSVSSSISSSNLHWYQQKSETSPKPWIYGTSNLASGVPVRFSGSGSGTSYSLTISSMEAEDAATYYCQQWSSYPLTFGAGTKLELKR
notes: as for B7
B9: G2-CH10 (antibody, human IgG1, kappa, V domains shown)
VH: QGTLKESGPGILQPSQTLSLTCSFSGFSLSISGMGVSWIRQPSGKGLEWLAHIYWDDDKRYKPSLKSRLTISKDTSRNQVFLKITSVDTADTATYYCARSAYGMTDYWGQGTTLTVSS
VL: DIQMTQTTSSLSASLGDRVTISCRASQDISNYLNWYQQKPDGTVKLLIHSASNLHSGVPSRFSGSGSGTDYSLTISNLEQEDIATYFCQQYNMFPWTFGGGTKLEIKR
notes: as for B7
B10: G2-CH6 (antibody, human IgG1, kappa, V domains shown)
VH: EVQLRQSGPELVKPGTSMKISCKASAYSFTDYNMNWVKQSHGKNLEWIGLINPYNGGTRYNQNFKGKATITVDRSSTTAYMELLSLTSEDSAIYYCAREVRLGNALDYWGQGTSVTVSS
VL: DIQMTQSPASLSVSVGETVTITCRPSESIYSNLAWYQQKQGKSPQLLVYAATNLADGVPSRFSGSGSGTQYSLKINSLQSEDFGTYYCQHFWGIPWTFGGGTKLEIKR
notes: as for B7
B11: G2-CH7 (antibody, human IgG1, kappa, V domains shown)
VH: EVQLQQSGPELVKPGASLKISCKASGYSFTGYNMNWVKQSHGKNLEWIGLINPSNGGSSYSQKFKGKATLTVDKSSSTAYMELLSLTSKDSAVYYCAREVRLGNALDYWGQGTSVTVSS
VL: B10 VL with P25A, S28N, A55G, V58A, T85S, I94T
notes: as for B7
B12: G2-CH9 (antibody, human IgG1, kappa, V domains shown)
VH: B11 VH with L18M, H41Q, S54Y, S58T, S59I, S61N, S77T, K89E, L106M
VL: B10 VL with P25A, S28N, Y49S, N76I, E81V, T85S, I94T
notes: as for B7
B13: G2-CH12 (antibody, human IgG1, kappa, V domains shown)
VH: QVQLQQSGAELVKPGASVKLSCKASGYTFTNYDINWVRQRPEQGLEWIGWIFPGDGSTKYNEKFKDKATLTTDTSSSTAYMQLIRLTSEDSAVYFCARILYWGQGTTLTVSS
VL: DNKMTQSPSSMYASLGERVTITCKASQDINSYLSWFQQKPGKSPKTLIYRANKLVDGVPSRFSGSGSGQDYSLTISSLEYEDMGIYHCLQYDEFPYTFGGGTKLEIKR
notes: as for B7
B14: G2-CH5 (antibody, human IgG1, kappa, V domains shown)
VH: EVLLQQSGPELVKPGASVKIACKASGYTLTDYNLNWVKQSHGKSLEWIGDLNPYNGGIIYNQKFKGKATLTVDKSSSTAYMELRSLTSEDIAVYYCAREGRGGAWFDSWGQGTLVTVSA
VL: DIQMTQSSSSFSVSLGDRVTITCKASEDIYHRLAWYQQKPGNAPRLLISGATSLETGIPSRFSGSGSGKDYALSITSLQTEDVGTYYCQQYWSPPFTFGSGTKLEIKR
notes: as for B7
B15: G2-CH1 (antibody, human IgG1, kappa, V domains shown)
VH: QVTLKESGPGILQPSQTLSLTCSFSGFSLSTYGIGVGWIRQPSGKGLEWLAHIWWNNNKYFNTALKSRLTISKDTSNNQVFLKIASVDTADSATYYCARMGYDIMDYWGQGTSVTVSS
VL: DIVMTQSHKFMSTSVGDRVSITCKASQDVNTAVAWYQQKPGQSPKFLIYSSSYRYTGVPDRFTGSGSGTDFTFTISSVQAEDLAVYYCQQHYSTPWTFGGGTKLEIKR
notes: as for B7
B16: G2-CH8 (antibody, human IgG1, kappa, V domains shown)
VH: B15 VH with N57D, F61Y, S92T, M100L, G101A, I104Y, M105V, Y107S, S113T, V114L
VL: DIVMTQAAFSNPVTLGTSASISCRSSKSLLHSNGITYLYWYLQKPGQSPQLLIYQMSNLVSGVPDRFSSSGSGTDFTLRISRVEAEDVGVYYCAQNLELPPTFGAGTKLELKR
notes: as for B7
B17: G2-CH16 (antibody, human IgG1, kappa, V domains shown)
VH: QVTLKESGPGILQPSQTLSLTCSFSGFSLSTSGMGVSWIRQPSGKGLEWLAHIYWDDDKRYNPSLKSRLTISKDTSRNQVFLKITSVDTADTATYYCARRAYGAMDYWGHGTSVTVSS
VL: B1 VL with V33I, Y36F, K45E, G46A, A93T, W96H, K107R
notes: as for B7
B18: G2-CH2 (antibody, human IgG1, kappa, V domains shown)
VH: B1 VH
VL: B1 VL with A93S
notes: as for B7
B19: G2-CH3 (antibody, human IgG1, kappa, V domains shown)
VH: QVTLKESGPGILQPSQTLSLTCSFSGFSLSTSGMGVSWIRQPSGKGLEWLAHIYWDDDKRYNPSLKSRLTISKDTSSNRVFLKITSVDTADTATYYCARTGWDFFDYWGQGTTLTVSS
VL: B1 VL with S76N, A93S, W96Y
notes: as for B7

Biological target: T1, human GDF15 recombinant protein (ACRO, …)
Assay: cell-based or functional assay

Row | IC50, reporter gene cell strain (mGFRAL) [µg/mL] | Binder
1 | 0.088 | B1

Biological target: T1, human GDF15 recombinant protein (ACRO, …)
Assay: cell-based or functional assay
Remark: another data set of the same source

Row | IC50, reporter gene cell strain (GFRAL/RET) [nM] | Binder
2 | 0.039 | B2
3 | 0.059 | B3
4 | 0.081 | B4
5 | 0.049 | B5
6 | 0.087 | B6

Biological target: T2, GDF15 protein (R&D, 8146-GD)
Assay: SPR Biacore T200, antibody captured by anti-hFc on CM5, GDF15 as analyte, 1:1 model

Row | Kd [nM] | koff [s⁻¹] | kon [M⁻¹ s⁻¹] | Binder
7 | 0.0221 | 0.000175 | 7.9e+06 | B2
8 | 0.0273 | 0.000239 | 8.75e+06 | B3
9 | 0.0349 | 0.00026 | 7.44e+06 | B4
10 | 0.0251 | 0.000193 | 7.68e+06 | B5
11 | 0.0442 | 0.000278 | 6.28e+06 | B6

Biological target: T1, human GDF15 recombinant protein (ACRO, …)
Assay: ELISA, coated hGDF-15.His

Row | EC50 [nM] | Binder
12 | 0.00382 | B7
13 | 0.00663 | B8
14 | 0.00592 | B9
15 | 0.00434 | B10
16 | 0.00552 | B11
17 | 0.00634 | B12
18 | 0.0106 | B13
19 | 0.00394 | B14
20 | 0.00387 | B15
21 | 0.00122 | B16
22 | 0.00476 | B17
23 | 0.00627 | B18
24 | 0.00453 | B19

Biological target: T1, human GDF15 recombinant protein (ACRO, …)
Assay: cell-based or functional assay
Remark: another data set of the same source

Row | IC50, luciferase reporter gene cell strain (mGFRAL/RET HEK293) with hGDF15 [nM] | Binder
25 | 11.7 | B7
26 | 0.2 | B8
27 | 3.4 | B9
28 | 4.39 | B10
29 | 3.83 | B11
30 | 1.42 | B12
31 | 6.8 | B13
32 | 3.45 | B14
33 | 3.75 | B15
34 | 3.05 | B16
35 | 0.45 | B17
36 | 3.24 | B18
37 | 3.55 | B19

Biological target: T3, cynomolgus monkey GDF15 recombinant …
Assay: ELISA, coated cynoGDF-15.hFc

Row | EC50 [nM] | Binder
38 | 0.0654 | B7
39 | 0.0721 | B8
40 | 0.0841 | B9
41 | 0.0892 | B10
42 | 0.104 | B11
43 | 0.097 | B12
44 | 0.211 | B13
45 | 0.0929 | B14
46 | 0.086 | B15
47 | 0.0934 | B16
48 | 0.0909 | B17
49 | 0.098 | B18
50 | 0.102 | B19

Biological target: T4, mouse GDF15 recombinant protein …
Assay: ELISA, coated mGDF-15.hFc

Row | EC50 [nM] | Binder
51 | 0.22 | B7
52 | 0.76 | B8
53 | 0.25 | B9
54 | 0.11 | B10
55 | 0.12 | B11
56 | 0.11 | B12
57 | 5.64 | B13
58 | 0.12 | B14
59 | 0.17 | B15
60 | 0.37 | B16
61 | 0.32 | B17
62 | 0.26 | B18
63 | 56.5 | B19
